In the RNAGym collection of RNA variant scans (doi:10.1073/pnas.2313332121):

B1: TPR t1 (parent)
chain: GACCAAUCUGCCCUCAGAGCUCGAGAACAUCUUCGGAUGCAGAGGAGGCAGGCUUCGGUGGCGCGAUAGCGCCAACGUCCUCAACCUCCAAUGCAUCCCACCACAUGAUGAUGCCUGAAGAGCCUUGGUUUUUUG

Variants of: B1
Assay: polymerase ribozyme fitness, log enrichment relative to wild type (log ratio); higher = more active; in vitro selection for triplet polymerase activity
In short: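 One round of in vitro selection, in triplicate, was applied to PCR-built, transcribed mutant libraries of each subunit of a heterodimeric triplet polymerase ribozyme. The steps were annealing with a biotinylated primer, partner subunit and triplets, incubation frozen at −7 °C, gel excision of extended constructs, streptavidin-bead capture and RT-PCR. Fitness is the logarithm, base 2, of genotype enrichment over wild-type enrichment from inverse-variance-weighted replicate averages of Illumina-sequenced inputs and outputs, keeping genotypes with ≥10 input reads and ≥1 read per output.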

| Variant | polymerase ribozyme fitness (log ratio) |
| --- | --- |
| GACCAAUCUGCCCUCAGAGCUCGAGAACAUCUUCGGAUGCAGAGGAGGCAGGCUGCGGUGGCGCGAUAGCACCAACGUCCUCAACCUCCAAUGCAUCCCACCACAUGAUGAUGCCUGAAGAGCCUUGGUUUUUUG | -1.19 |
| GACCAAUCUGCCCUCAGAGCUCGAGAACAUCUUCGGAUGCAGAGGAGGCAGGCUGCGGUGGCGCGAUAGCGCCAACGUCCUCAACCUCCAAUGCAUCCCACCACAUGAUGAUGCCUGAAGAGCCUUGGUUUCUUG | -0.153 |
| GACCAAUCUGCCCUCAGAGCUCGAGAACAUCUUCGGAUGCAGAGGAGGCAGGCUGCGGUGGCGCGAUAGCGCCAACGUCCUCAACCUCCAAUGCAUCCUACCACAUGAUGAUGCCUGAAGAGCCUUGGUUUUUUG | -2.45 |
| GACCAAUCUGCCCUCAGAGCUCGAGAACAUCUUCGGAUGCAGAGGAGGCAGGCUGCGGUGGCGCGAUAGCGCCAACGUCCUCAACCACCAAUGCAUCGCACCACAUGAGGAUGCCUGAAGCGCCUUGGUUUUUUG | -6.47 |
| GACCAAUCUGCCCUCAGAGCUCGAGAACAUCUUCGGAUGCAGAGGAGGCAGGCUGCGAUGGCGCGAUAGCGCCAACGUCCUCAACCUCCAAUGCAUCCCACCACAUGAUGAUGCCUGAAGAGCCUUGGUAUUUUG | -0.383 |
| GACCAAUCUGCCCUCAGAGCUCGAGAACAUCUUCGGAUGCAGAGGAGGCAGGCUGCGGUGGCGCGAUACCGCCAACGUCCUCAACCUCCAAUGCAUCCCACCACAUGAUGAUGCCUGAAGAGCCUUGGUUUUUUG | -1.57 |
| GACCAAUCUGCCCUCAGAGCUCGAGAACAUCUUCGGAUGCAGAGGAGGCAGGCUGCGGUGGCGCGAUAACGCCAACGUCCUCAACCUCCAAUGCAUCCCACCACAUGAUGAUGCCUGAAGAGCCUUGGUUUUUUG | -1.67 |
| GACCAAUCUGCCCUCAGAGCUCGAGAACAUCUUCGGAUGCAGAGGAGGCAGGCUGCGGUGGCGCGAUAGCACCAACGUCCUCAACCUCCAAUGCAUCCCAACACAUGAUGAUGCCUGAAGAGCCUUGGUUUUUUG | -1.24 |
| GACCAAUCUGCCCUCAGAGCUCGAGAACAUCUUCGGAUGCAGAGGAGGCAGGCUGCGGUGGCGCGAUAGCGCCAACGUCCUCAACCUCCAAUGCAUCCCACCACAUGAUGAUCCCUGAAGAGCCUUGGUUUUUUG | -0.955 |
| GACCAAUCUGCCCUCAGAGCUCGAGAACAUCUUCGGAUGCAGAGGAGGCAGGCUGCGGUGGCGUGAUAGCGCCAACGUCCUCAACCUCCCAGGCAUCCCAACACAUGAUGAUGCCUGAAGAGCCUUGGUUUUUUG | -3.82 |
| GACCAAUCUGCCCUCAGAGCUCGAGAACAUCUUCGGAUGCAGAGGAGGCAGGCUGCGGUGGCGCGAUAGCGCCAAAGUCCUCAACCUCCAAUGCAUCCCACCACAUGAUGAUGCCUGAAGAGCCUUGGUUUUUUG | -0.0105 |
| GACCAAUCUGCCCUCAGAGCUCGAGAACAUCUUCGGAUGCAGAGGAGGCAGGCUGCGGUGGCGCGAUAGCGACAACGUCCUCAACCUCCAAUGCAUCCCACCACAGGAUGAUUCCUGAAGAGCCUUGGUUUUAUG | -5.76 |
| GACCAAUCUGCCCUCAGAGCUCGAGAACAUCUUCGGAUGCAGAGGAGGCAGGCUGCGGUGGCGCGAUAGCGCCAACGUCCUCAACCUCCAAUGCAUCCCACCAAAUGAUGAUGCCUGAAGAGCCUUGGUUUUUUG | -1.59 |
| GACCAAUCUGCCCUCAGAGCUCGAGAACAUCUUCGGAUGCAGAGGAGGCAGGCUGCGGUGGCGCGAUAGCGCCAACGUCCUCAACCUCCAAUGCAUCCCACCACAUGAAGAUGCCUGAAGAGCCUUGGUUUUUUG | -5.03 |
| GACCAAUCUGCCCUCAGAGCUCGAGAACAUCUUCGGAUGCAGAGGAGGCAGGCUGCGGUGGCGCGAUAGCGCCAACGUCCUCAACCUCCAAUGCAACCCACCACAUGAUGAUGCUUGAAGAGCCUUGGUUUUUUG | -2.35 |
| GACCAAUCUGCCCUCAGAGCUCGAGAACAUCUUCGGAUGCAGAGGAGGCAGGCUUAGGUGGCGCGAUAGCGCCCACGUCCUCAACCUCCAAUGCAUCUCACCACAUGAUGAUGCCUGAAGAGCCUUGGUUUUUUG | -0.178 |
| GACCAAUCUGCCCUCAGAGCUCGAGAACAUCUUCGGAUGCAGAGGAGGCAGGCUUAGGUGGCGCGAUAGCGCCAACGUCCUCACCCUCCAAUGCAUCCCACCACAUGAUGAUGCCUGAAGAGCCUUGGUUUUUUG | -1.1 |
| GACCAAUCUGCCCUCAGAGCUCGAGAACAUCUUCGGAUGCAGAGGAGGCAGGCUGCAGUGGCGCGAUAGCGCCAACGUCCUCAACCUCCAAUGCAUCCCACCACAUGAUGAUGCCUGAAGAGCCUUGGUUUUUUG | -0.536 |
| GACCAAUCUGCCCUCAGAGCUCGAGAACAUCUUCGGAUGCAGAGGAGGCAGGCUGCGGUGGCGCGAUAGCGCCAACGUCCUCAACCUCCAAUGCAUCCCACCAUAUGAUGAUCCCUGAAGAGACUUGGUUUUUUG | -3.72 |
| GACCAAUCUGCCCUCAGAGCUCGAGAACAUCUUCGGAUGCAGAGGAGGCAGGCUGCGGUAGCGCGAUAGCGCCAACGUCCUCAACCUCAAAUGCAUCCCACCACAUGAUGAUGACUGAAGAGCCUUGGUUUUUUG | -2.87 |
| GACCAAUCUGCCCUCAGAGCUCGAGAACAUCUUCGGAUGCAGAGGAGGCAGGCUGCGGUGGCGCGAUAGCGUCAACGUCCUCAACCUCCAAUGCAUCCCACCACAUGAUGAUGCCUGAAGAGCCUUGGUUUUUUG | -0.317 |
